Target: Heat shock protein 90 (Hsp90), purified, native (UniProt P07900 1-732)
Test: pull-down

Binder: FLVLL (head-to-tail cyclised macrocycle (cyclic pentapeptide)) [Sansalvamide A-amide (San A-amide), compound 1, macrocycle Phe-Leu-Val-Leu-Leu]
- IC50: 19.7 µM

Reference: PMC2933939 (Bioorganic & medicinal chemistry, 2010)
